Test results from patent US20040267001A1, “Genes encoding baeyer-villiger monooxygenases” (priority 2001, published 2004).

Test: Conversion of cyclohexanone to caprolactone by E. coli clones expressing Rhodococcus erythropolis AN12 monooxygenases, GC-MS detection
Format: cell-based, Escherichia coli
Conditions: 500 mg/L cyclohexanone, 0.1 mM IPTG, overnight at 24° C., GC-MS of ethylacetate extract
Description: Following amplification, the gene fragments were cloned into pTrcHis-TOPO TA vectors with either an N-terminal tail or C-terminal tail, as provided by the vector sequence. These vectors were transformed into E. coli, with transformants grown in Luria-Bertani broth supplemented with ampicillin (100 ug/ml).
The chnB monooxygenase activity of each expressed enzyme from Example 9 was tested for activity according to its ability to convert cyclohexanone to caprolactone.
Clones containing the full length monooxygenase genes were transferred from LB agar plate to 5 mL of M63 minimal media (GIBCO) containing 10 mM glycerol, 50 ug/mL ampicillin, 0.1 mM IPTG, and 500 mg/L cyclohexanone. In addition to the clones containing full length monooxygenases, a plasmid without an insert and a “no cell” control were also assayed. The encoded monooxygenase sequences were expressed upon addition of IPTG to the culture media. The cultures were incubated overnight at room temperature (24° C.). Samples (1.25 mL) for analysis were taken immediately after inoculation and after overnight incubation; cells were removed by centrifugation (4° C., 13,000 rpm).
Caprolactone formed by the action of the cloned monooxygenase was extracted from the aqueous phase with ethylacetate (1.0 ml aqueous/0.5 mL ethylacetate). Caprolactone was detected by gas chromotagraphy mass spectrometry (GC-MS) analysis, using an Agilent 6890 Gas chromatograph system.
The analysis of the ethylacetate phase was performed by injecting 1 uL of the ethyl acetate phase into the GC. The inlet temperature was 115° C. and the column temperature profile was 50° C. for 4 min and ramped to 250° C. at 20° C./min, for a total run time of 14 min. The compounds were separated with an Hewlet Packard HP-5MS (5% phenyl Methyl Siloxane) column (30 m length, 250 um diameter, and 0.25 um film thickness). The mass spectrometer was run in Electron Ionization mode. The background mass spectra was subtracted from the spectra at the retention time of caprolactone (9.857 min). Presence of caprolactone was confirmed by comparison of the test reactions to an authentic standard obtained from Aldrich Chemical Company (St. Louis, Mo.).
Results of these assays are shown below in Table 7, in terms of the presence or absence of detectable caprolactone formation according to the activity of each expressed BV monooxygenase enzyme.

Molecule | Formation of Caprolactone (ability to convert cyclohexanone to caprolactone)
ORF 18: Rhodococcus erythropolis AN12 ORF 18 chnB monooxygenase, protein SEQ ID NO:42, expressed in E. coli (protein, Rhodococcus erythropolis AN12) MSSRVNDGHIAIIGTGFSGLCMAIELKKKGIDDFVLYERADDVGGTWRDNTYPGAACDVPSVLYSYSFAQNPNWTRIFPPWSELLDYLRSVAAQYDLLPHIRFGVEVSEMRFDEDRLRWNIQFASGESVTAAVVVNGSGGLSNPYIPQLPGLESFEGAAFHSAKWRHDLDMSGRRVAVIGSGASAIQFVPEIAPHTETLHVFQRSPNWVMPRGDAALSPATRERFSRRPYRQRWLRWRTYWAFEKLASAFLGNRKLVEQYRSQALANLQQQVPDSDLRQKVTPDYDPGCKRRLISDDWYPALQRENVHLNTSGVSEIRPHSIIDSEGAEHEVDTLIFATGFQATSFLAPMKVFGREGVELSDSWREGAATKLGLASAAFPNLWFLNGPNTGLGHNSIIFMIEAQARYIASAVQYMRRKSITALELDRTVQTGSYAATQERMRRTVWASGGCDSWYQSADGRIDTLWPASTIEYWLRTRLFRKSDFHALTTGKG | Detected
ORF 17: Rhodococcus erythropolis AN12 ORF 17 chnB monooxygenase, protein SEQ ID NO:40, expressed in E. coli (protein, Rhodococcus erythropolis AN12) MTQHVDVLIIGAGLSGIGAACHLIREQTGSTYAILERRENIGGTWDLFKYPGIRSDSDMLTFGFGFRPWIGTKVLADGASIRDYVEETAKEYGVTDHINFGRKVVAMDFDRTAAQWSVTVLVEATGETETWTANVLVGACGYYNYDKGYRPAFPGEDDFRGQIVHPQHWPEDLDYTGKKVVVIGSGATAITLIPSMAPTAGHVTMLQRSPTWIQALPSEDPVAKGLKLARVPDQIAYKIGRARNIALQRASFQLSRTNPKLAKKLFLAQIRLQLGKNVDLRHFTPSYNPWDQRLCVVPNGDLFKVLKSGKADIVTDRIATFTEKGIVTESGREIEADVIVTATGLNVQILGGATMSIDGEPVKLNETVAYKSVLYSDIPNFLMILGYTNASWTLKADLAASYLCRVLKIMRDRSYTTFEVHAEPEDFAEESLMGGALTSGYIQRGDGEMPRQGARGAWKVVNNYYRDRKLMHDAEIEDGVLQFSKVDIAVVPDSKVASA | Detected
ORF 9: Rhodococcus erythropolis AN12 ORF 9 chnB monooxygenase, protein SEQ ID NO:24, expressed in E. coli (protein, Rhodococcus erythropolis AN12) MVDIDPTSGPSAGDEETRTRRTRVVVIGAGFGGIGTAVRLKQSGIDDFVVLERAAEPGGTWQVNTYPGAQCDIPSILYSFSFAPNPNWTRLYPLQPEIYDYLRDCVHRFGLAGHFHCNQDVTEASWDEQAQIWRVHTAETVWEAQFLVAATGPFSAPATPDLPGLESFRGQMFHTADWNHDHDLRGERIAVVGTGASAVQIIPRLQPLADTLTVFQRTPTWILPHPDQPMTGWPSALFERVPLTQRLARKGLDLLQEALVPGFVYKPSLLKGLAALGRAHLRRQVRDPELRAKLLPHYAFGCKRPTFSNTYYPALASPNVEVVTDGIVEVQERGVLTADGAFREVDTIVMGTGFRMGDNPSFDTIRGQDGRSLAQTWNGSAEAFLGTTISGFPNFFMILGPNSVVYTSQVVTIEAQVEYIVSCILQMDERGIGSIDVRADVQREFVRATDRRLATSVWNAGGCSSYYLVDGGRNYTFYPGFNRSFRARTKRADLAHYAQVQPVSSAALTTARETVRSR | Detected
ORF 11: Rhodococcus erythropolis AN12 ORF 11 chnB monooxygenase, protein SEQ ID NO:28, expressed in E. coli (protein, Rhodococcus erythropolis AN12) MSPSPLPSVCIIGAGPTGITTAKRMKEFGIPFDCYEASDEVGGNWYYKNPNGMSACYQSLHIDTSKWRLAFEDFPVSADLPDFPHHSELFQYFKDYVEHFGLRESIIFNTSVVAAERDANGLWTVTRSDGEVRTYDVLMVCNGHHWDPNIPDYPGEFDGVLMHSHSYNDPFDPIDMRGKKVVVVGMGNSGLDIASELGQRYLADKLIVSARRGVWVLPKYLGGVPGDKLITPPWMPRGLRLFLSRRFLGKNLGTMEGYGLPKPDHRPFEAHPSASGEFLGRAGSGDITFKPAITKLDGKQVHFADGTAEDVDVVVCATGYNISFPFFDDPNLLPDKDNRFPLFKRMMKPGIDNLFFMGLAQPMPTLVNFAEQQSKLVAAYLTGKYQLPSANEMQEITKADEAYFLAPYYKSPRHTIQLEFDPYVRNMNKEIAKGTKRAAASGNKLPVAARAAAHELEKADRA | Detected
ORF 12: Rhodococcus erythropolis AN12 ORF 12 chnB monooxygenase, protein SEQ ID NO:30, expressed in E. coli (protein, Rhodococcus erythropolis AN12) VNNESDHFEVVIIGGGISGIGAAIHLQRLGIDNFALLEKADSLGGTWRANTYPGCACDVPSGLYSYSFAANPDWTRLFAEQPEIREYIENTAGTHGVDKHVRFGVEMLSARWDASQSLWKITTSSGELTARFVIAAAGPWNEPLTPAIPGLEAFEGEVFHSSQWNHDYDLTGKLVAVVGTGASAVQFVPRIVSQVSALHLYQRTAQWVLPKPDHYVPRIERSVMRFVPGAQKALRSIEYGIMEALGLGFRNPWILRIVQKLGSAQLRLQVRDPKLRKALTPDYTLGCKRLLMSNSYYPALGKPNVSVHANAVEQIRGNTVIGADGVEAEVDAIIFGTGFHILDMPIASKVFDGEGRSLDDHWQGSPQAYFGSAVSGFPNAFILLGPSLGTGHTSAFMILEAQLNYVAQAIGHARRHGWQTIDVREEVQAAFNSQVQEALGTTVYNAGGCESYFFDVNGRNSFNWPWSSGAMRRRLRDFDPYAYNHTSNPESDNTPPEPTPSEPTPSEPTPSEPTTSPEPEYTA | Detected
ORF 16: Rhodococcus erythropolis AN12 ORF 16 chnB monooxygenase, protein SEQ ID NO:38, expressed in E. coli (protein, Rhodococcus erythropolis AN12) VKLPEHVETLIVGAGFAGMGLAARMLRDNRTADVVLIERGADIGGTWRDNTYPGCACDVPTALYSYSFAPSADWSHTFARQPEIYDYLKKVAADTGIGDRVILNCELEAAVWDEDAALWRVRTSLGSLTVKALVAATGALSTPKIPDFPGLDQFSGTTFHSATWNHEHELRGERVAVIGTGASAVQFVPEIADPAAHVTVFQRTPAWVIPRMDRTLPAAQKAVYSRIPATQKVVRGAVYGFRELLGAAMSHATWVLPAFEAAARLHLRRQVKDPELRRKLTPDFTIGCKRMLLSNDWLRTLDRADVSLVDSGLVSVTEGGVVDGHGVEHKVDTIIFATGFTPTEPPVAHLITGKRGETLAAHWNGSPNAYKGTAVSGFPNLFLMYGPNTNLGHSSIVYMLESQAEYVNDALNTMKRERLDALDVNESVQVHYNKGIQHELQHTVWNKGGCSSWYIDPEGRNSVQWPTFTFKFRSLLEHFDRENYSARKIESVQA | Detected
